Measured values published in PMC6326806.

Tests used:
Plk1 [1] = target: Plk1 (UniProt P53350); experiment: GFP-trap co-IP of Myc-Plk1; conditions: reference: GFP-B-Myb wild type; sites T476
Plk1 [2] = target: Plk1 (UniProt P53350); experiment: GST-Plk1 pull-down from cell lysate; conditions: reference: wild type; sites T476

Substance	binding against the reference (Plk1 [1])	binding against the reference (Plk1 [2])
B-Myb (from UniProt P10244) GFP-B-Myb T476A	lost	–
B-Myb (from UniProt P10244) T476A	–	lost
